{"source": "the supplement of paper PMC9170038", "tested_on": "MS2 coat protein", "test": "apparent KD of MS2 coat protein; designed switch direction (-1 OFF switch, 1 ON switch): -1; higher = weaker reporter binding", "details": "Eterna round: R98", "method": "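RNA-MaP: designed FMN/MS2 RNA switches (84 nt design region) are transcribed on-chip within common flanks and titrated with SNAP-549-labelled MS2 coat protein (about 1-3000 nM) in 100 mM Tris pH 7.5, 80 mM KCl, 4 mM MgCl2, without or with 200 uM FMN. Median apparent KD per design; activation ratio = KD,OFF / KD,ON.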"}
{"sequence": "UCUUAAAUGAUCCUAUUUACCAACAUGAGGAUCACCCAUGUGCAGGAUAUGCUAAAGAUAGAUAAGCAGAAGGGCAUUAACCGC [JR_ExcNG3_Sub006]", "values": [{"measurement": "apparent KD of MS2 coat protein", "setting": "input ligand: FMN 200 uM", "result": 244, "unit": "nM"}, {"measurement": "apparent KD of MS2 coat protein", "setting": "input ligand: none", "result": 165, "unit": "nM"}]}
